T1: murine tissue factor from murine brain extracts (murine, UniProt P20352 29-294)
T1 sequence (looked up): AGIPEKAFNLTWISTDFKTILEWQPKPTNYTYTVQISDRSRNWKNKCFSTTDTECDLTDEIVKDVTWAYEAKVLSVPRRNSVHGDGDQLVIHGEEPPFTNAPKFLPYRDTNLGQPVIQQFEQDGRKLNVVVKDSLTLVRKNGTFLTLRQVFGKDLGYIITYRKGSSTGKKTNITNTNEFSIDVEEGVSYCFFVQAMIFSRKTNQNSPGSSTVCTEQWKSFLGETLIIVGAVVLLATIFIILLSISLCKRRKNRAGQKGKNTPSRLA

T2: murine tissue factor on B6F10 melanoma cells (murine, UniProt P20352 29-294)
T2 construct: whole, on cells; also called cell-associated mTF
T2 sequence (looked up): T1 sequence (looked up)

B1: PHD126 Fab (Fab, V domains shown)
VH: QVQLVQSGAEVKKPGESLKISCKGSYSFSNYWIGWVRQMPGKGLEWMGFIDPDDSDTNYSPSFQGQVTISADKSISTAYLQWSSLKASDTAMYYCARALYMQGGSFDSWGQGTLVTVSS
VL: DIELTQPPSVSVAPGQTARISCSGDNLGSYYVSWYQQKPGQAPVLVIYRDTDRPSGIPERFSGSNSGNTATLTISGTQAEDEADYYCQSYDYGVSNQVFGGGTKLTVLG
B2: PHD103 Fab (Fab, V domains shown)
VH: QVQLVQSGAEVKKPGESLKISCKGSGYSFSNSWIAWVRQMPGKGLEWMGGIIGPGHSYTKYSPSFQGQVTISADKSISTAYLQWSSLKASDTAMYYCARINMGYFDYWGQGTLVTVSS
VL: DIELTQPPSVSVAPGQTARISCSGDSLGLKKFVSWYQQKPGQAPVLVIYDDSNRPSGIPERFSGSNSGNTATLTISGTQAEDEADYYCGTYDQTIGHDVVFGGGTKLTVLG
B3: PHD104 Fab (Fab, V domains shown)
VH: QVQLVQSGAEVKKPGESLKISCKGSYSFTSNWIGWVRQMPGKGLEWMGWIYPSDSMTRYSPSFQGQVTISADKSISTAYLQWSSLKASDTAMYYCARYLFGLFDNWGQGTLVTVSS
VL: DIELTQPPSVSVAPGQTARISCSGDNLGSYYVSWYQQKPGQAPVLVIYNDNNRPSGIPERFSGSNSGNTATLTISGTQAEDEADYYCATYDSSTDVFGGGTKLTVLG
B4: PHD127 Fab (Fab, V domains shown)
VH: QVQLVQSGAEVKKPGESLKISCKGSYSFTNSWISWVRQMPGKGLEWMGIIDPDDSYTSYSPSFQGQVTISADKSISTAYLQWSSLKASDTAMYYCARGAGYGRMFGDVWGQGTLVTVSS
VL: DIELTQPPSVSVAPGQTARISCSGDNLGSYYASWYQQKPGQAPVLVIYQDDNRPSGIPERFSGSNSGNTATLTISGTQAEDEADYYCGAYTYSTSWVFGGGTKLTVLG
notes: Human Fab from the HuCAL library

Key:
[1] = molecular target: T1, murine tissue factor from murine brain …; experiment: cell-based or functional assay
[2] = molecular target: T2, murine tissue factor on B6F10 melanoma …; experiment: flow cytometry (FACS) on B6F10 melanoma cells expressing mTF

Binder	EC50 Conc. (ug/ml) for human plasma (inhibition of fibrin clot formation, murine brain extracts as source of mTF) [1]	EC50 [2]
B1	0.23 µg/mL	
B2	63.3 µg/mL	
B3	23.8 µg/mL	
B4	0.82 µg/mL	4.35 nM

Reference: patent publication US20060039900A1 (Janssen / Centocor, published 2006)
